Laboratory results reported in paper PMC7241785.

Molecular target: T1, GST-Flag-SASPase 28 kDa recombinant protein (human) (UniProt Q53RT3)
T1 sequence: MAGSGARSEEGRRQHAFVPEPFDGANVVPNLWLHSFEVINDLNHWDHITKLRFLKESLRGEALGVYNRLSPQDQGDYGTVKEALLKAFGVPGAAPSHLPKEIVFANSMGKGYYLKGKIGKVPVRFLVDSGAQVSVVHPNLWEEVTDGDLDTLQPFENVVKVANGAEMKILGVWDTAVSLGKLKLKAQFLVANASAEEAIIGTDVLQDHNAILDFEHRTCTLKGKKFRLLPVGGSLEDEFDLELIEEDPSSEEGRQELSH

SASPase activity on Dabcyl-QIDRIMEK-Glu(Edans)-NH2 (0.1 mM), pH 5.5, 0.5 μM SASPase 28, FLG2Nter at ratios from 1.25 to 10; fold against the protease alone: 10 fold
B1: recombinant protein FLG2Nter (aa 2-213) (domain or fragment)
chain: TDLLRSVVTVIDVFYKYTKQDGECGTLSKGELKELLEKELHPVLKNPDDPDTVDVIMHMLDRDHDRRLDFTEFLLMIFKLTMACNKVLSKEYCKASGSKKHRRGHRHQEEESETEEDEEDTPGHKSGYRHSSWSEGEEHGYSSGHSRGTVKCRHGSNSRRLGRQGNLSSSGNQEGSQKRYHRSSCGHSWSGGKDRHGSSSVELRERINKSHI
